Measured values as given in PMC1794554, “Multiplatform genome-wide identification and modeling of functional human estrogen receptor binding sites”.

Experiments:
Details in all cases: chain copies: 2; label: 5'-biotin on the ERE strand; blunt
[1] = molecular target: T1, estrogen receptor alpha (ERα), purified (UniProt P03372 1-595); experiment: SPR; SPR: 40 mM HEPES-KOH pH 7.4, 10 mM MgCl2, 200 mM KCl, 0.2% Triton X-100, 2 mM DTT, room temperature; ERα 58-708 nM (relative binding averaged over concentrations)
T1 sequence (P03372 whole entry): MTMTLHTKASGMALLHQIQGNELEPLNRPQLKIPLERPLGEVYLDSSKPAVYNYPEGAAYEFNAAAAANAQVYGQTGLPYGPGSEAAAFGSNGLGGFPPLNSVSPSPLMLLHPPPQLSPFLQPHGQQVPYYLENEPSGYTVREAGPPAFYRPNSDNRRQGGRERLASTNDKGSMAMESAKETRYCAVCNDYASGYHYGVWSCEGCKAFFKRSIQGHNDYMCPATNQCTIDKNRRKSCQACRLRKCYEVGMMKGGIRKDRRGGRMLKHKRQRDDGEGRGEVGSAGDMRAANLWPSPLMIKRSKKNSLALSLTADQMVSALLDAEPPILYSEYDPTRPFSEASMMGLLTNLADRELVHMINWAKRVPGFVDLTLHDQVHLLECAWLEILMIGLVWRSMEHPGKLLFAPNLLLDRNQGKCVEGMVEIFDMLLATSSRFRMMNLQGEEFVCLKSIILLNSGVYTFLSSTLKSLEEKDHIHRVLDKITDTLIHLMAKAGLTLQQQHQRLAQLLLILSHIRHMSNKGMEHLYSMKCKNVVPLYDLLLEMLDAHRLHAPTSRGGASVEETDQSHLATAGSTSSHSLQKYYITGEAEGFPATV

[2] = molecular target: T1, estrogen receptor alpha (ERα), purified; experiment: SPR; not significantly perturbed; SPR: 40 mM HEPES-KOH pH 7.4, 10 mM MgCl2, 200 mM KCl, 0.2% Triton X-100, 2 mM DTT, room temperature; ERα 58-708 nM (relative binding averaged over concentrations)
[3] = molecular target: T1, estrogen receptor alpha (ERα), purified; experiment: SPR; binding disrupted by about 40%; SPR: 40 mM HEPES-KOH pH 7.4, 10 mM MgCl2, 200 mM KCl, 0.2% Triton X-100, 2 mM DTT, room temperature; ERα 58-708 nM (relative binding averaged over concentrations)

B1: GREB1 ERE wildtype (dsDNA)
DNA 1: TGTGGCAACTGGGTCATTCTGACCTAGAAGCAAC
DNA 2: GTTGCTTCTAGGTCAGAATGACCCAGTTGCCACA
Q: B1 was tested. Which binding signal [1] did it give?
A: 100 % of wild type

B2: mutant 4 (outside the 3-bp flank, C to G) (dsDNA)
DNA 1: TGTGGGAACTGGGTCATTCTGACCTAGAAGCAAC
DNA 2: GTTGCTTCTAGGTCAGAATGACCCAGTTCCCACA
Q: Does B2 bind [2]?
A: binds

B3: mutant 1 (conserved 3' G to A) (dsDNA)
DNA 1: TGTGGCAACTGGGTCATTCTGACCTAAAAGCAAC
DNA 2: GTTGCTTTTAGGTCAGAATGACCCAGTTGCCACA
Q: For B3, which binding signal [3] is on record?
A: ~60 % of wild type
